A protein production outcome set (Wang et al. 2014)

Assay: label from the status in PepcDB records

For “MAEAPPVSGTFKFNTDAAEFIPQERKTSGLNCGTQRRLDSSRIGRRNYSSSPPCHLPRHIPYEDISAVHQHSYASGSKPKSPQGFFQSSNKSLKNHGLQNQPWQKARNEKHQNRNKKAQGLSEQTSDTSSLESVARSESGTNPREHSPSESEKEVVIADPRGAKPKKAAQLTYNYGRGPKAKGRLRSEWGNRMSPKSEDENTRPVAISHTDSSDASCRKPVVDPCVCRRNEQRRYPQKRPPWEVEGARPRPGRNPPKQESQRHINAGPKTNMSPIPKDNLRERPTKSACDTGNLAVVSKSSRRVNQEKTAVRRQDPQVLSPFPRGKQNHMLKNVETHTGSLIEQLTTEKYECMVCCELVQVTAPVWSCQSCFHVFHLNCIKKWARSPASHADGQSGWRCPACQNVSAHVPNTYTCFCGKVKNPEWSRNEIPHSCGEVCRKKQPGQDCPHSCNLLCHPGPCPPCPAFTTKTCECGRTRHTVRCGQPVSVHCSNACENILNCGQHHCAELCHGGQCQPCRIILNQVCYCGSTSRDVLCGTDVGKSDGFGDFSCLKICGKDLKCGSHTCSQVCHPQPCQPCPRLPHLVRYCPCGQTPLSQLLEHGSNARKTCMDPVPSCGKVCGKPLACGSSDFIHTCEKLCHEGDCGPCSRTSVISCRCSFRTKELPCTSLKSEDATFMCDKRCNKKRLCGRHKCNEICCVDKEHKCPLICGRKLRCGLHRCEEPCHRGNCQTCWQASFDELTCHCGASVIYPPVPCGTRPPECTQTCARIHECDHPVYHSCHSEEKCPPCTFLTQKWCMGKHEELTIKKLWTFKETLDF”, the protein production was “not failed”.
For “DILVFTPRKSDAGISVILYPGAFVDALSYAPLANKLASSGYKTYIAEMPLNLAVFGKNRAADIIDEAPDEKFVIGGHSLGGVMSSRFAHENESEIEGVFFLASYPDKKGSLKNASFPALSITGTKDDVLNKDAYDKNKKYLPKDTTFVSIEGGNHAQFGSYGAQHGDGKATISEAEQTDQVSNALIAWLNTSVKNQE”, the protein production was “not failed”.
For “MFAIRRRCRPRPGQFQHGWSGLPTHTVPQAGSIAPIGRVRPSSVGNVRPTPECNVLPSFGRSSTNPSFPMEPIEDLDVLAEDEVRQREADGEVDEDLDRVKHGYDATAGDKQVYIETYGCQMNVNDSGIVASVLEESGYGLTRDQAAADVVLLNTCAIRENAERKIRARLSMLRSEKEKRDGELMLGVLGCMAERLREKLLEQEDLVDVVVGPDAYRDLPQLLYEADATGQAAVNVELSKQETYEDIQPVRYDSNGVSAYVSIMRGCDNMCTFCVVPFTRGREESRPVTTILSEVARLAEEGYKEVTLLGQNVNSYHYTDADGTSVSFAELVDRVSRVSPEMRVRYSTSHPKDCTDDLLKVHRDRPNVCNYIHLPVQHGNTEVLDRMRRTYTREEYLALTERAKELCPGVSLSTDLIAGFCGETEAQHEDTLSLMEEVRYDHAYMFKYSERPQTYAARKYEDDVPEDTKQRRLEEIIELQNQHAKESNEAEVGRVHTVLVEGPSKKSDAQFFGRTDTNKGVVFDREDYEKGDYVRVRIEDCTSSTLLGTAIEKTTLEAAARTDSITTSPAVA”, the protein production was “failed”.
In the case of “MSKLFPGEVFANTADFDTGIRQLLPRYDEMLEVICRCLPLTSRRILDLGCGTGELSLKILQRCPDAQVIALDYSPRMLKFAQNKIVASGYKERWTGLQADFGDWAINPETLNIGNEFDACVSSLAIHHLYDEMKLQLFQRIAASLTPNGCFWNADPILPESPTLAEIYQAAREEWVSEQGSNFTEVRAKVGDSSPQGYSNPDQLATLDTHLQMLTKSGFTTVAVPWKYYGLAVFGGWVKLEHHHHHH”, the protein production is reported as “not failed”.
With “MISVGKGKIMITPDHNIIKPIAIVLPQFHPIRENNLWWGEGFTEWTNVVKGRPRFRGHYQPHLPKDLGYYDLRLPETRKAQAALATKYGIYGFCYYHYWFNGRRILESPVDAMLESGEPDFPFMLCWANENWTRNWDGSYNKVLLEQKYSKEDFVNHARHLIRYFKDDRYIKIDGRPVFAIYKDDIGEDIEKYLLLFRNELLKNSINVFLCRFERNIGTSRDLNRAFQVFDAGIEFQPLARQFSYLINYNNRLSRRIYKTLKKHFCFCKNIDDVYVYSHLVDNDLKYDFQQGWPIFPGVCPGWDNSARRRDTTAIIFDKSTPEIFKLWVREKIRITDWNLLPERFLFVNAWNEWAEGNHLEPCEKWGTQYLAALQAGINEM” the protein production was “failed”.
For “MRASTLLIIAGMFIVSLYALIEVSFYSSQVTVHRPDVRAPVIEVPSINLTETINNRSVFYGVYHEPMSYPPGNRTVILFGHRTLYGSPFLHLDKLRAGDSVYLNWPGVGFAEYRVNRSFIVPASYQMPVNQGAKLFLITCHPLGSTRERLIVECHLEGIRPYQRNVRVDNPKSYYSIPIILGFLSAGLLVTRFYPVEEDRRFLLAAVIGLTVFLVLGYLFPIPPEFISDKLMEFNNILGI”, the protein production was “failed”.
With “MLDQKPKVSVIIPTYNRAHLIPRAIKSVLNQTYLDIEIIIVDDSSTDNTEEIVKDFKDRRLKYIRHNINKGASAARNTGIRESRGKYIAFQDSDDEWFSNKLEKQIEAFADAPPEVGIVYSGFYRIEANRKLYLPSDQLSLKEGNIHNELLKGNFVGTPTVLMKKECFRNQRYFNESLPALEDWELWIELSKYYTFRYIKKPLLCSYSTPNSINLNENNMLKAHEIILLTHLDDFSKNKKNLSEHYYDIGTGLCSIGNFNNGKNYLIKSLKAYCLNFKTISVLFILLFGHNIYYKFRDLHRKIGHRT” the protein production was “failed”.
In the case of “MLQSINQLNPDIVVITGDLTENGFSAEYDGVKMFIDRIECKNRVLVPGNHDSKNAGYLHFEDLFENRFQTRNLGNMTIVGADSSQPDIDDGHLGRENYGWIKEAFSGENFKVFALHHHLVPIPLAGRENTVLVDAGDVLDLLNKCRVNLVLCGHCHIPHVWNLNNMLVVNAGTFCSSKTRGKTTQCFNLIQAENSEKNGNGESEKIEDGGWKVRVSRVFPQGNIEFITETVMLEHHHHHH”, the protein production is reported as “failed”.
For “MRVFFSTLAGLALALAAGGAVASGLGDADKGREVFRQCAFCHAVGEGAENGIGPHLNGVFGRAAGRIEGVQYSKSMIRMGNDGLIWTAQTLDAYIENPRALVSKTRMSFRGIKNEQERSDLMAYLRRYSDDPGNIPEAEPTATGTDHDLDPVILAIQGDPEYGEYLASECKTCHQTSGANDGIPGITQWPTEDFVVAMHAYKRKLRPHPVMQMMAGRLSNDEIAALAAYFQDLE”, the protein production was “failed”.
For “MERHQHLLSEYQQILTLSEQMLVLATEGNWDALVDLEMTYLKAVESTANITISSCSSLMLQDLLREKLRAILDNEIEIKRLLQLRLDRLSDLVGQSTKQQAVNNTYGQFPDHALL”, the protein production was “not failed”.
In the case of “MKIDILDKGFVELVDVMGNDLSAVRAARVSFDMGLKDEERDRHLIEYLMKHGHETPFEHIVFTFHVKAPIFVARQWFRHRIASYNELSGRYSKLSYEFYIPSPERLEGYKTTIPPERVTEKISEIVDKAYRTYLELIESGVPREVARIVLPLNLYTRFFWTVNARSLMNFLNLRADSHAQWEIQQYALAIARIFKEKCPWTFEAFLKYAYKGDILKEVQV”, the protein production is reported as “not failed”.
With “LNLPYDEHADAWTQVKKALAAGKRTHKPTLLVFGANWCTDCRALDKSLRNQKNTALIAKHFEVVKIDVGNFDRNLELSQAYGDPIQDGIPAVVVVNSDGKVRYTTKGGELANARKMSDQGIYDFFAKITE” the protein production was “not failed”.
For “MATPKFAEIKQYITGCIESGEWEENARVPSENQLAELFVCSRMTARRALTELTDNGVLERSQGLGTFVAGRKSQSSMLAIRNIADEIKDRGHGYSVQQLALEQVNATAPIAIALALDVGSPVFHSILVHCEQGVPLQVEERYVNPAFAPDYLVQDFSEQTPHEYLSQVAPLTEAHHTIEAIIASSELQQRLAIPATEPCLQISRRTWSRQGVVSFAKLVHPGSRFKLGGHLTFNK”, the protein production was “failed”.
In the case of “MQGISASPERMNAQQRAAHVRQVVLARGDELRRRFPLLRHQDALGAGILAFALSGMLGSALLYVTGHLAWWACLLLNAFFASLTHELEHDLIHSMYFRKQRLPHNLMLGLVWLARPSTINPWVRRHLHLNHHKVSGSESDIEERAITNGEPWGIARLLMVGDNMMAAFIRLLRAPGARRKLGILVRTLAVYAPLALLHWGAWYVFLGFHGANGVAALLGSPIQWSQDTASLMHYVDIAVVVIIGPNVLRTFCLHFVSSNMHYYGDIEPGNVIQQTQVLNPWWMWPLQAFCCNFGSTHGIHHFVVREPFYIRQMTASVAHKVMAEMGVRFNDFGTFARANRFTRQEREAMQPAHNARA”, the protein production is reported as “failed”.
For “TDYDNREKSADIALLKEMNSLRDIIENNSDWIWEVDVAGRYTFSSAKSIELLGRLPHEVIGKTPFDFMPKDEAHRVGKLFAEIAAERIPFAGLQNRNIRADGSEVLIESSGIPLFDHNGEFKGYRGIDRN”, the protein production was “failed”.
For “TLRNYPLTCKVVYSYKASQPDELTIEEHEVLEVIEDGDMEDWVKARNKVGQVGYVPEKYLQFPTS”, the protein production was “not failed”.
In the case of “MMQKPITEIIIVGGGTAGWITAGLLAAEHNVDKGVLAHSPKLNITLIESPDVATIGVGEGTWPSMRSTLSKIGIDENDFIRQCDASFKQGSRFINWCKDPQSNVADSYLHPFSLPHGHQELDLCPYWLPHAEQVSFAEAVCSQQVLTQLGLAPKSIVTAQYHFQNNYGYHLNAAKFSQLLTEHCTQKLGVTHIRDHVSQIINNQHGDIEKLITKQNGEISGQLFIDCTGAKSLLLGEHLQVPFLSQKSVLFNDRALAIQVPYSDANSPIASCTHSTAQPNGWIWDIGLPTRKGVGYVYSSSHTNDIDAQKTLFNYLGVDGAAADKLEPRQLAINPGYRAKCWQNNCIAIGMAAGFIEPLEASALALIEWTASTLAQQLPPNRMVMDTISARVNERYQQHWQQIIDFLKLHYVISQRQEDRYWRDHRESNSIPDSLQAMLELWRYQTPSQQDISYKEALFPAASFQYVLYGMSFNTQLPTHVKPSMQQLAQRLFNDNQQRTQALSKNLPTNRELLDKVAQYGFPKL”, the protein production is reported as “not failed”.
In the case of “MQRLQASLERRQVGIYFAAMALGAVLAWHRPGLQVGEATLNLMLAGMLLATFMQVPLAGWRATLPGMRFLGVLLSVNFVLVPALVWGLAALLPADPMIRLAVLLVLLAPCIDYVVTFAQLGRADARALLAATPVLLCGQMLLLPLYLNVMLGSDAAALIRPGPFVQAFVWLIALPLAAATGVQWAAARSAAWRGAASVVGLLPVPATALVLATIVAAVAPRMALAGEAVSRVVPVYLLFAVIAPAAGWLAARRARLAAPQARAVAFSAGTRNSLVVLPLALAVPGGVPLLPALIVAQTLVELCAELLYVRVFGRAGKDRAGEG”, the protein production is reported as “failed”.
In the case of “METLILTQEEVESLISMDEAMNAVEEAFRLYALGKAQMPPKVYLEFEKGDLRAMPAHLMGYAGLKWVNSHPGNPDKGLPTVMALMILNSPETGFPLAVMDATYTTSLRTGAAGGIAAKYLARKNSSVFGFIGCGTQAYFQLEALRRVFDIGEVKAYDVREKAAKKFVSYCEDRGISASVQPAEEASRCDVLVTTTPSRKPVVKAEWVEEGTHINAIGADGPGKQELDVEILKKAKIVVDDLEQAKHGGEINVAVSKGVIGVEDVHATIGEVIAGLKDGRESDEEITIFDSTGLAIQDVAVAKVVYENALSKNVGSKIKFFRI”, the protein production is reported as “not failed”.
With “MRLFIMEFKHLMFSKTFLFYCLLIIIFTVLNCQQVLKHPINSDVYQPQNMTMYSTDKNLIMSNEIKELKNEVHQNNFKTYQFGFLKQKKLNDQQISKIKKLISKMEKTNNFHQFKNYSNSVSHVVGWGSQYSKNNISLFGIKNMSKSKYVKEKNIIKNKEYYYGAYSRYFSDIMGVVLGILPFFLGAQMILQDKKSNAIKTIHSKSISSYQLISTRVFTILVLAYLPVLLVSIYFVTCLSMIHQISMFSLFIFYKILILWTLPTLIFTIAMGFFVTIILNSYLGVMIQIVIWFINLNIGSRAIEGCYGSLLIPRHNTLFNAVFFYNHFNQILANRFTYFGLGLLLILLSTYIFDLKRREVGFNAKIFTNRYQN” the protein production was “failed”.
In the case of “MTKQSKTQIRICFVGDSFVNGTGDPECLGWTGRVCVNANKKGYDVTYYNLGIRRDTSSDIAKRWLQEVSLRLHKEYNSLVVFSFGLNDTTLENGKPRVSIAETIKNTREILTQAKKLYPVLMISPAPYIEQQDPGRRRRTIDLSQQLALVCQDLDVPYLDVFPLLEKPSVWLHEAKANDGVHPQAGGYTEFARIVENWDAWLNWFR”, the protein production is reported as “not failed”.
